Among the targets are cKit(V560G)(h) (human, UniProt P10721 544-976); ACK1(h) (human, UniProt Q07912 110-476, limits assumed); CK2α2(h) (human, UniProt P19784 1-350); c-RAF(h) (human, UniProt P04049 306-648, limits assumed); SRPK2(h) (human, UniProt P78362 1-688, limits assumed); PKGη(h) (human); PKA(h) (human, UniProt P17612 1-351); JAK3(h) (human, UniProt P52333 781-1124, limits assumed); EGFR(L858R)(h) (human, UniProt P00533 696-1210, limits assumed); Plk1(h) (human, UniProt P53350 1-603); GRK5(h) (human, UniProt P34947 1-590); TLK2(h) (human, UniProt Q86UE8 1-772, limits assumed); Tie2(R849W)(h) (human, UniProt Q02763 771-1124, limits assumed); FAK(h) (human, UniProt Q05397 1-1052, limits assumed); CK1γ1(h) (human, UniProt Q9HCP0 1-422); JAK2(h) (human, UniProt O60674 808-1132, limits assumed); Lck(h) (human, UniProt P06239 1-509); HIPK3(h) (human, UniProt Q9H422 163-562, limits assumed); PAK5(h) (human, UniProt Q9P286 1-719, limits assumed); Abl(M351T)(h) (human, UniProt P00519 27-1130, limits assumed).

Holding throughout (assay): cell-based or functional assay
The target of the next experiment is T1, Bmx(h) (human, UniProt P51813 1-675, limits assumed).
T1 sequence (looked up): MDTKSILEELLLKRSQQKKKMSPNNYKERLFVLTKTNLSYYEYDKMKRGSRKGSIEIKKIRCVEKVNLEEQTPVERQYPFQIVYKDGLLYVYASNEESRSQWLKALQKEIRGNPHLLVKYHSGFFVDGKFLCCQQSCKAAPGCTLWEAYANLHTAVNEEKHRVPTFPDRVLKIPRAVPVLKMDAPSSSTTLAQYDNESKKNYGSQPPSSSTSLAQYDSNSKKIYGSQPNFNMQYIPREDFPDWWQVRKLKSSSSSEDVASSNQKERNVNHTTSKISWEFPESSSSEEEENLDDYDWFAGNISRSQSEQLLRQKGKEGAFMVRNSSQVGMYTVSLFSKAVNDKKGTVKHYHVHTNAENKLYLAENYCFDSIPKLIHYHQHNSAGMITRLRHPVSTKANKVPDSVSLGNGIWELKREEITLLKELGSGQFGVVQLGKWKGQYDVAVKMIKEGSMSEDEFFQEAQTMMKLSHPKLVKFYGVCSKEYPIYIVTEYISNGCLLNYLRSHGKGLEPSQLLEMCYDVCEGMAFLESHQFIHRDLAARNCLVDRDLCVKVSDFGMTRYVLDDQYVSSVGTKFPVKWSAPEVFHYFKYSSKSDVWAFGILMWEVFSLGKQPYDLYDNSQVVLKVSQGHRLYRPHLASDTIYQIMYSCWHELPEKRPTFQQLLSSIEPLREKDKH

From patent US20140072613A1 (published 2014) come the findings set out here.

B1: MMI-0400 (peptide)
peptide: KAFAKLAARLYRKALARQLGVAA
As for B1, the “% activity, 100 µM” value was 124% with cKit(V560G)(h); 26% with Bmx(h); 95% with ACK1(h); 96% in the experiment with CK2α2(h); 102% with c-RAF(h); 97% with SRPK2(h). Also, the “% activity, 100 µM” value with PKGη(h) was determined as 98%; in the experiment with PKA(h) it was 119%; in the experiment with JAK3(h) it was 122%; with EGFR(L858R)(h), 52%; in the experiment with Plk1(h) it was 119%; in the experiment with GRK5(h), 131%. Also, the “% activity, 100 µM” value with TLK2(h) worked out at 151%; with Tie2(R849W)(h) it was 108%; with FAK(h), 96%.

B2: MMI-0300 (peptide)
peptide: FAKLAARLYRKALARQLGVAA
B2: the “% activity, 100 µM” value with CK1γ1(h) was 111%; with JAK2(h), 133%; in the experiment with Lck(h), -2%; in the experiment with HIPK3(h), 93%; with PAK5(h), 110%; with Abl(M351T)(h), 90%.
